Data from the supplement of paper PMC10567573.

B1: ZNF649 (parent)
chain: MTKAQESLTLEDVAVDFTWEEWQF
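Note: lentivirally expressed fusions sorted by FACS into six bins by GFP to DsRed ratio, PSI derived from sequencing read proportions per bin multiplied by bin number.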

Variants of: B1
Assay: protein stability index of a GFP-peptide fusion (GPS, HEK-293T) (PSI 1-6); higher = more stable
Details: c terminus: a fixed tail appended
Variant MTKAQESLTLEKVAVDFTWEEWQF [D12K] has a protein stability index of 2.7.
MTKAQESLTLEVVAVDFTWEEWQF [D12V] gave a protein stability index of 1.92.
MTKAQESLTLEEVAVDFTWEEWQF [D12E] gave a protein stability index of 3.23.
MTKAQESLTLEHVAVDFTWEEWQF [D12H] showed a protein stability index of 2.68.
Work on MTKAQESLTLEIVAVDFTWEEWQF [D12I] yielded a protein stability index of 2.95.
Work on MTKAQESLTLELVAVDFTWEEWQF [D12L] yielded a protein stability index of 3.49.
Work on MTKAQESLTLEPVAVDFTWEEWQF [D12P] yielded a protein stability index of 3.05.
For MTKAQESLTLECVAVDFTWEEWQF [D12C], the protein stability index was 2.65.
With MTKAQESLTLERVAVDFTWEEWQF [D12R] the protein stability index was 2.85.
In the case of MTKAQESLTLEFVAVDFTWEEWQF [D12F], the protein stability index is reported as 3.77.
MTKAQESLTLEAVAVDFTWEEWQF [D12A] gave a protein stability index of 1.72.
Work on MTKAQESLTLENVAVDFTWEEWQF [D12N] yielded a protein stability index of 2.23.
In the case of MTKAQESLTLEGVAVDFTWEEWQF [D12G], the protein stability index is reported as 2.55.
In the case of MTKAQESLTLEMVAVDFTWEEWQF [D12M], the protein stability index is reported as 2.14.
MTKAQESLTLEQVAVDFTWEEWQF [D12Q] gave a protein stability index of 2.84.
Variant MTKAQESLTLESVAVDFTWEEWQF [D12S] has a protein stability index of 2.13.
For MTKAQESLTLEYVAVDFTWEEWQF [D12Y], the protein stability index was 4.33.
Variant MTKAQESLTLETVAVDFTWEEWQF [D12T] has a protein stability index of 2.2.
Variant MTKAQESLTLCDVAVDFTWEEWQF [E11C] has a protein stability index of 2.12.
For MTKAQESLTLRDVAVDFTWEEWQF [E11R], the protein stability index was 2.39.
MTKAQESLTLMDVAVDFTWEEWQF [E11M] showed a protein stability index of 2.14.
For MTKAQESLTLNDVAVDFTWEEWQF [E11N], the protein stability index was 3.28.
Work on MTKAQESLTLIDVAVDFTWEEWQF [E11I] yielded a protein stability index of 2.25.
Variant MTKAQESLTLWDVAVDFTWEEWQF [E11W] has a protein stability index of 2.13.
With MTKAQESLTLVDVAVDFTWEEWQF [E11V] the protein stability index was 1.43.
In the case of MTKAQESLTLSDVAVDFTWEEWQF [E11S], the protein stability index is reported as 2.83.
Variant MTKAQESLTLQDVAVDFTWEEWQF [E11Q] has a protein stability index of 3.9.
Variant MTKAQESLTLDDVAVDFTWEEWQF [E11D] has a protein stability index of 3.57.
With MTKAQESLTLPDVAVDFTWEEWQF [E11P] the protein stability index was 2.69.
Work on MTKAQESLTLTDVAVDFTWEEWQF [E11T] yielded a protein stability index of 2.86.
With MTKAQESLTLYDVAVDFTWEEWQF [E11Y] the protein stability index was 1.28.
With MTKAQESLTLHDVAVDFTWEEWQF [E11H] the protein stability index was 2.
MTKAQESLTLLDVAVDFTWEEWQF [E11L] showed a protein stability index of 1.56.
With MTKAQESLTLADVAVDFTWEEWQF [E11A] the protein stability index was 2.39.
Work on MTKAQESLTLKDVAVDFTWEEWQF [E11K] yielded a protein stability index of 2.62.
MTKAQESLTLFDVAVDFTWEEWQF [E11F] showed a protein stability index of 1.44.
For MTKAQESLTLGDVAVDFTWEEWQF [E11G], the protein stability index was 2.98.
In the case of MTKAQESLTLEDVAVTFTWEEWQF [D16T], the protein stability index is reported as 3.32.
MTKAQESLTLEDVAVSFTWEEWQF [D16S] gave a protein stability index of 3.12.
For MTKAQESLTLEDVAVLFTWEEWQF [D16L], the protein stability index was 2.73.
Work on MTKAQESLTLEDVAVGFTWEEWQF [D16G] yielded a protein stability index of 3.13.
In the case of MTKAQESLTLEDVAVNFTWEEWQF [D16N], the protein stability index is reported as 3.77.
For MTKAQESLTLEDVAVYFTWEEWQF [D16Y], the protein stability index was 2.64.
With MTKAQESLTLEDVAVMFTWEEWQF [D16M] the protein stability index was 2.34.
In the case of MTKAQESLTLEDVAVIFTWEEWQF [D16I], the protein stability index is reported as 2.52.
MTKAQESLTLEDVAVCFTWEEWQF [D16C] gave a protein stability index of 2.89.
In the case of MTKAQESLTLEDVAVKFTWEEWQF [D16K], the protein stability index is reported as 2.5.
With MTKAQESLTLEDVAVVFTWEEWQF [D16V] the protein stability index was 2.29.
MTKAQESLTLEDVAVAFTWEEWQF [D16A] showed a protein stability index of 3.34.
In the case of MTKAQESLTLEDVAVHFTWEEWQF [D16H], the protein stability index is reported as 3.23.
MTKAQESLTLEDVAVRFTWEEWQF [D16R] gave a protein stability index of 2.22.
With MTKAQESLTLEDVAVEFTWEEWQF [D16E] the protein stability index was 1.85.
With MTKAQESLTLEDVAVQFTWEEWQF [D16Q] the protein stability index was 2.92.
MTKAQESLTLEDVAVFFTWEEWQF [D16F] gave a protein stability index of 2.94.
With MTKAQESLTLEDVAVPFTWEEWQF [D16P] the protein stability index was 4.02.
In the case of MTKAQEVLTLEDVAVDFTWEEWQF [S7V], the protein stability index is reported as 2.5.
With MTKAQEYLTLEDVAVDFTWEEWQF [S7Y] the protein stability index was 2.54.
For MTKAQEWLTLEDVAVDFTWEEWQF [S7W], the protein stability index was 1.72.
Variant MTKAQESLILEDVAVDFTWEEWQF [T9I] has a protein stability index of 2.71.
MTKAQESLDLEDVAVDFTWEEWQF [T9D] showed a protein stability index of 3.71.
With MTKAQESLCLEDVAVDFTWEEWQF [T9C] the protein stability index was 3.52.
Variant MTKAQESLMLEDVAVDFTWEEWQF [T9M] has a protein stability index of 3.16.
MTKAQESLYLEDVAVDFTWEEWQF [T9Y] gave a protein stability index of 2.41.
For MTKAQESLRLEDVAVDFTWEEWQF [T9R], the protein stability index was 3.59.
MTKAQESLNLEDVAVDFTWEEWQF [T9N] showed a protein stability index of 4.28.
With MTKAQESLQLEDVAVDFTWEEWQF [T9Q] the protein stability index was 3.58.
For MTKAQESLHLEDVAVDFTWEEWQF [T9H], the protein stability index was 3.81.
With MTKAQESLFLEDVAVDFTWEEWQF [T9F] the protein stability index was 3.35.
In the case of MTKAQESLELEDVAVDFTWEEWQF [T9E], the protein stability index is reported as 3.94.
MTKAQESLWLEDVAVDFTWEEWQF [T9W] gave a protein stability index of 2.54.
MTKAQESLGLEDVAVDFTWEEWQF [T9G] showed a protein stability index of 3.49.
MTKAQESLSLEDVAVDFTWEEWQF [T9S] showed a protein stability index of 3.43.
MTKAQESLVLEDVAVDFTWEEWQF [T9V] showed a protein stability index of 3.16.
MTKAQESLKLEDVAVDFTWEEWQF [T9K] gave a protein stability index of 3.38.
With MTKAQESLLLEDVAVDFTWEEWQF [T9L] the protein stability index was 2.54.
With MTKAQESLPLEDVAVDFTWEEWQF [T9P] the protein stability index was 4.17.
In the case of MTKAQESLALEDVAVDFTWEEWQF [T9A], the protein stability index is reported as 3.37.
Variant MTKAQESRTLEDVAVDFTWEEWQF [L8R] has a protein stability index of 3.79.
Variant MTKAQESDTLEDVAVDFTWEEWQF [L8D] has a protein stability index of 4.41.
For MTKAQESTTLEDVAVDFTWEEWQF [L8T], the protein stability index was 3.93.
With MTKAQESSTLEDVAVDFTWEEWQF [L8S] the protein stability index was 4.47.
MTKAQESCTLEDVAVDFTWEEWQF [L8C] showed a protein stability index of 3.42.
Variant MTKAQESGTLEDVAVDFTWEEWQF [L8G] has a protein stability index of 4.11.
Work on MTKAQESKTLEDVAVDFTWEEWQF [L8K] yielded a protein stability index of 4.31.
Work on MTKAQESFTLEDVAVDFTWEEWQF [L8F] yielded a protein stability index of 2.5.
In the case of MTKAQESYTLEDVAVDFTWEEWQF [L8Y], the protein stability index is reported as 2.7.
In the case of MTKAQESMTLEDVAVDFTWEEWQF [L8M], the protein stability index is reported as 3.62.
Work on MTKAQESWTLEDVAVDFTWEEWQF [L8W] yielded a protein stability index of 2.23.
In the case of MTKAQESNTLEDVAVDFTWEEWQF [L8N], the protein stability index is reported as 4.42.
In the case of MTKAQESVTLEDVAVDFTWEEWQF [L8V], the protein stability index is reported as 3.59.
For MTKAQESPTLEDVAVDFTWEEWQF [L8P], the protein stability index was 3.58.
MTKAQESITLEDVAVDFTWEEWQF [L8I] showed a protein stability index of 3.05.
MTKAQESETLEDVAVDFTWEEWQF [L8E] gave a protein stability index of 4.39.
MTKAQESATLEDVAVDFTWEEWQF [L8A] gave a protein stability index of 4.22.
